Measured values reported in publication PMC3657613 (Nature chemical biology, 2012).

What was measured:
MC4R Δ1–24 = MC4R Δ1–24 (Homo sapiens, UniProt P32245); assay: MC4R activity, cAMP-responsive luciferase reporter in transfected HEK293 cells; format: cell-based; settings: for stimulation of MC4R Δ1–24 by peptide (efficacy): compared with constitutive activity of wild-type MC4R, normalized to membrane expression, triplicate, Fig. 2a
wild-type MC4R = assay: as above; format: cell-based, human; settings: constitutive activity; Fig. 1f

Sequence of MC4R Δ1–24 (P32245 25-332, stated change not applied): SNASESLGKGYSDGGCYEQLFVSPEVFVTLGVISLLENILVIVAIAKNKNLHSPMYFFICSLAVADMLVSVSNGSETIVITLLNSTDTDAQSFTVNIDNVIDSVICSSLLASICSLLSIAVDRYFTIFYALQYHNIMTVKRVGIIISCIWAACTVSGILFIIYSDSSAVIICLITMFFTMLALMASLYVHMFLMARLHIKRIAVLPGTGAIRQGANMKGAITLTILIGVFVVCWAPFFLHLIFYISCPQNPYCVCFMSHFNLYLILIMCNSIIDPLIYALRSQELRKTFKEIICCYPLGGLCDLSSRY

Row | Substance | stimulation of MC4R Δ1–24 by peptide (efficacy) (MC4R Δ1–24) | other results
1 | MC4R 2–19: smaller overlapping peptide spanning the MC4R N-terminal domain, residues 2–19 (VNSTHRGMHTSLHLWNRS) | not significantly different from the constitutive activity of wild-type MC4R | 
2 | MC4R 14–26: smaller overlapping peptide spanning the MC4R N-terminal domain, residues 14–26 (HLWNRSSYRLHSN) | not significantly different from the constitutive activity of wild-type MC4R | 
3 | MC4R 8–26: smaller overlapping peptide spanning the MC4R N-terminal domain, residues 8–26 (GMHTSLHLWNRSSYRLHSN) | not significantly different from the constitutive activity of wild-type MC4R | 
4 | MC4R 14–19 S19A: MC4R 14–19 hexapeptide with S19A substitution (HLWNRA) | not significantly different from the constitutive activity of wild-type MC4R | 
5 | MC4R 14–19 R18L: MC4R 14–19 hexapeptide with R18L substitution (HLWNLS) | markedly disrupted MC4R 14–19 efficacy | 
6 | HLWNRS [MC4R 14–19] | not significantly different from the constitutive activity of wild-type MC4R | 
7 | Agouti-related protein (SSRRCVRLHESCLGQQVPCCDPCATCYCRFFNAFCYCRKLGTAMNPCSRT; UniProt O00253 83-132, looked up) [AgRP] |  | AgRP inverse agonism of wild-type MC4R (wild-type MC4R): inverse agonism of the wild-type receptor; AgRP antagonism of MC4R 2–26 activation of MC4R Δ1–24 (MC4R Δ1–24; Fig. 1f): inhibits the activation of MC4R Δ1–24 by MC4R 2–26 with similar potency as its inverse agonism of the wild-type receptor; effect on residual N terminal–independent constitutive activity of MC4R Δ1–24 (MC4R Δ1–24; Supplementary Fig. 3a): inhibits the residual N terminal–independent constitutive activity; inhibition of αMSH-induced receptor activation (MC4R Δ1–24; receptor with or without the N-terminal domain, Supplementary Fig. 3e): inhibits αMSH-induced receptor activation independent of the absence or presence of the N-terminal domain
8 | MC4R 14–19 N17A: MC4R 14–19 hexapeptide with N17A substitution (HLWARS) | not significantly different from the constitutive activity of wild-type MC4R | 
9 | MC4R 14–19 L15A: MC4R 14–19 hexapeptide with L15A substitution (HAWNRS) | not significantly different from the constitutive activity of wild-type MC4R | 
10 | MC4R 14–19 H14A: MC4R 14–19 hexapeptide with H14A substitution (ALWNRS) | markedly disrupted MC4R 14–19 efficacy | 
11 | MC4R 8–20: smaller overlapping peptide spanning the MC4R N-terminal domain, residues 8–20 (GMHTSLHLWNRSS) | not significantly different from the constitutive activity of wild-type MC4R | 
12 | MC4R 14–19 W16A: MC4R 14–19 hexapeptide with W16A substitution (HLANRS) | markedly disrupted MC4R 14–19 efficacy | 
